Test results reported in paper PMC10958042.

B1: ATGL (PNPLA2, patatin-like phospholipase domain-containing protein 2), human, full length / perilipin-5, mouse (mPlin5) (parent)
chain 1: MFPREKTWNISFAGCGFLGVYYVGVASCLREHAPFLVANATHIYGASAGALTATALVTGVCLGEAGAKFIEVSKEARKRFLGPLHPSFNLVKIIRSFLLKVLPADSHEHASGRLGISLTRVSDGENVIISHFNSKDELIQANVCSGFIPVYCGLIPPSLQGVRYVDGGISDNLPLYELKNTITVSPFSGESDICPQDSSTNIHELRVTNTSIQFNLRNLYRLSKALFPPEPLVLREMCKQGYRDGLRFLQRNGLLNRPNPLLALPPARPHGPEDKDQAVESAQAEDYSQLPGEDHILEHLPARLNEALLEACVEPTDLLTTLSNMLPVRLATAMMVPYTLPLESALSFTIRLLEWLPDVPEDIRWMKEQTGSICQYLVMRAKRKLGRHLPSRLPEQVELRRVQSLPSVPLSCAAYREALPGWMRNNLSLGDALAKWEECQRQLLLGLFCTNVAFPPEALRMRAPADPAPAPADPASPQHQLAGPAPLLSTPAPEARPVIGALGL
chain 2: MDQRGEDTTLAPHSRMSGDQTAQDPGSSLGELDQQNVVNRVVALPLVKATCTAVSSAYNSAKDRHPLLGSACRLAEHCVCSVTTCALDHAQPLLEHLQPQLATVNDLACRGLDKLEEKLPFLQQPSDMVVTSAKDTVAKSVTGMVDLAQRGRRWSGELRRSMSQAMDMVLGKSEKLVDRFLPMTEAELAVLAAEAEGPEVGTVEEQRQQQGYFVRLGSLSARLRHLAYEHSLGKLRQSKHRTQEMLAQLQETLELIQHMQRGASPSPTFHPPKTQELWGSWSPCLENGRSHSEVELETLALSRSLTLELQNAVDALAGCVRGLPPSAQAKVAEVQRSVDALQATFADAHCLGDVAPTALAEGRGSVARAHACVDEFLDLVLRAMPLPWLVGPFAPILVEQSEPLINLATCVDEVVGDPDPRWAHMDWPAQKRAWEAESADPGGQEAEPPRGQGKHTMMPELDF

Variants of: B1
Test: LUMIER: Protein A-ATGL variant and firefly luciferase-partner co-expressed in HEK293T, lysates immunoprecipitated on IgG-coated plates, co-precipitated partner measured as luciferase luminescence
Conditions: with perilipin-5, mouse (mPlin5), transient co-transfection, IgG-coated LUMITRAC plates, 2 h at 4 °C, three PBS washes, Bright-Glo luciferase reagent, triplicates per assay, two …, parent: 0.15, not graded, scale: log2 fold change of co-immunoprecipitated luminescence relative to wild-type ATGL within each experiment

Variant	screen value
chain 1 S87E	-0.403
chain 1 Y415A	0.184
chain 1 L261E	-0.706
chain 1 G16K	0.284
chain 1 G66A	-0.448
chain 1 G66L	-0.614
chain 1 E368A	-0.0206
chain 1 F348E	0.152
chain 1 A434L	0.18
chain 1 R95K	0.211
chain 1 V127L	-0.294
chain 1 L159A	-1.17
chain 1 L178A	-0.0602
chain 1 K275A	-0.0642

Now from value to variant:

screen value	Variant
-0.249	chain 1 S87A
-0.695	chain 1 P258L
0.182	chain 1 A453E
-0.463	chain 1 N39E
-1.35	chain 1 G189E
-0.305	chain 1 R113L
0.649	chain 1 R113K
0.0605	chain 1 K92L
-0.208	chain 1 L102K
0.00114	chain 1 E125L
-1.05	chain 1 G153K
-0.676	chain 1 G153A
-0.404	chain 1 R95L
-0.296	chain 1 R163K
0.0372	chain 1 T41A
-1.17	chain 1 P86K
0.319	chain 1 H109E
-0.161	chain 1 A104E

Same assay, conditions: with perilipin-5, mouse (mPlin5), transient co-transfection, IgG-coated LUMITRAC plates, 2 h at 4 °C, three PBS washes, Bright-Glo luciferase reagent, triplicates per assay, two …, parent: 0.46, not graded, scale: log2 fold change of co-immunoprecipitated luminescence relative to wild-type ATGL within each experiment

Variant	screen value
chain 1 S87E	-0.318
chain 1 Y415A	0.247
chain 1 L261E	-0.846
chain 1 G16K	0.354
chain 1 G66A	0.0231
chain 1 G66L	-0.664
chain 1 E368A	-0.0325
chain 1 F348E	-0.58
chain 1 A434L	0.786
chain 1 R95K	-0.228
chain 1 V127L	-0.0973
chain 1 L159A	-0.435
chain 1 L178A	-0.257
chain 1 K275A	-0.483

The remaining lines, values ahead:

screen value	Variant
-0.228	chain 1 S87A
-1.24	chain 1 P258L
0.52	chain 1 A453E
-0.463	chain 1 N39E
0.191	chain 1 R113L
0.667	chain 1 R113K
0.185	chain 1 K92L
-0.846	chain 1 L102K
-0.226	chain 1 E125L
-0.867	chain 1 G153K
-0.506	chain 1 G153A
-0.391	chain 1 R95L
0.00396	chain 1 R163K
0.0895	chain 1 T41A
-1.16	chain 1 P86K
-0.248	chain 1 H109E
-0.459	chain 1 A104E

Same assay, conditions: with perilipin-5, mouse (mPlin5), transient co-transfection, IgG-coated LUMITRAC plates, 2 h at 4 °C, three PBS washes, Bright-Glo luciferase reagent, triplicates per assay, two …, parent: 0.46, not graded, value at the no-binding floor (a bound), scale: log2 fold change of co-immunoprecipitated luminescence relative to wild-type ATGL within each experiment

Variant	screen value
chain 1 G189E	-1.51
